Data from the DeepSol protein solubility set.

Assay: soluble on expression in E. coli; label from the status in PepcDB or PDB records

Row | Sequence | soluble on expression in E. coli
1 | MSLEMEKYLSVTTLTKYLKMKFDKDPYLERVYLTGQVSNFRKRPTHQYFSLKDDHAVIQATIWSGIYQKLGFDLEEGMKINVIGRVQVYEPSGSYSIIIEKVEPDGVGALAIQFEQLKKKLTEEGLFQERFKQALPQFSKRIGVVTSRSGAVIRDIITTVSRRFPGVDILLYPTKVQGEGAAEEIARNIARANQRDDLDLLIIGRGGGSIEDLWAFNEEIVVRAIFESRLPVISSVGHETDVTLADFVADRRAATPTAAAELATPVTKLDVLAHLQNQEKRMVTAVRNVLSKKQEALKKCSQSVIFRQPERLYDGYLQRLDQLQLRLKQSLRTRISDNKQLVQARTHQLVQLSPVTKIQRYQDRLGQLDKLLGSQMALVYDAKVAEAKRLSEALLMLDTSRIVARGYAIVKKEESVVDSVESLKKKDQVTLLMRDGQVELEVKDVKTKEIEGHHHHHH | not soluble
2 | GPGSMRSTAPLFMAQGIWAGFRYYLGHFFYPNMYREYLSVQNAHKIERALRIQTAIKANRVDYRALLALPVTDHAHPYKMEYPWEKVINTDKSKLSGYGKWYASKIMCFYEGLQYHKYGCLQDDLINAHGWWNRAARTRAPQDKIVHGDRRVMRARVLRDKYIYEPKSRWVHPIDNVAYFGPYVMMVCDEWEEKWGFFAGQEVEY | not soluble
3 | WTKKTLGSLFELKKGEMLEKELLAPDGKYEYFNGGIKASGRTNEFNTFKNTISIIIGGSCGYVRLADKDYFCGQSSCTLTVLDPLEIDLKFAYYALKSQEEKITSLASGTTIKNIRLSDLKDLPIPLVKSIQDQRTIAHALSVFDL | soluble
4 | MSFLGFTLVGKKIRWTEKSLANFKHRVRQLTGRSWGVSMEYRLEKLGQYLRGWFGYYGISQYYRPIPELDEWIRRRVRMCYWKQWRWARTKIRHLLDLGIPLKAAIQHGVSSLSYWRMARTPLEHHHHHH | soluble
5 | MGSDKIHHHHHHVSATDTLDKTGTQTSAVRLGDLETPCLVLDADRMDRNIARLRDRIAGLGVTLRPHLKTAKSVEVARRVMATSEGPATVSTLKEAEFFADAGVRDIIYAVGIAPWKLAKVIELRKRGVDLAVVLDTVELAQAVAAASRESGMAIPALIEIDCDGHRSGVLPRDSERLLAIGKALVEGGELRGVLTHAGGSYAARGEEALRNAAEEERASVVNAAAILRDAGLPCPVVSVGSTPTAHHATDLTGVTEVRAGVFVFFDLVMTGIGICTVDDIAISVLATVIGHQREKGWILVDAGWMAMSQDRGTAKQVVNQGYGVVCKCDGTPYADLILADANQEHGIIMVRPGSDGTLPDLAIGDRVRILPNHACATGAQHRRYNVVHGTSDVVTGEWQRFGGW | not soluble
6 | MPASYLHHRSVTQQLPIMSTPHTDFFGLTIPFMQLLGVVPEHSGNGTARTRLPARADLVNSRGDIHGGTLMSVLDFTLGAAIRGDTPEVGVATIDMNTSFMSPGRGDLVIETRCLRRGASIAFCEGEIRDSAGELVAKATATFKIIQRRPGLEHHHHHH | soluble
7 | MGSDKIHHHHHHMLSNLWKRQAPQMVGIDIGSHEIKAILLSKTADGYKILSHAAVPVKKGAVNDHEIRDSDAVLESLRLIKRSLPKSVKYAAAAVSGSAVMTKVIYMDASLSEEEMETQIEIEADNLIPYSLDEVSIDFETLSVNSADPSKVDVLLSACRTENIDARVDSLDDINLEAKVIDVEGYALGRSFELVAAQLPDGAEDKVVALVDIGANMTTFAVVEKGETTFIREQAFGGEQFTQSILSFYGMSHEQAEKAKLEGDLPRNYMFEVLSPFQTQLLQQIKRTLQIYCTSSGKDKVDHIVLCGGTSKLEGMANLLTNELGVHTIIADPFLGCLHADEQVKTQLQPTINKYMVACGLALRSYSQWRT | not soluble
8 | MSKVKTRFAPSPTGYLHLGNARTAIFSYLFARHNNGGFVLRIEDTDPERSKKEYEEMLIEDLKWLGIDWDEFYRQSERFDIYREYVNKLLESGHAYPCFCTPEELEKEREEARKKGIPYRYSGKCRHLTPEEVEKFKKEGKPFAIRFKVPENRTVVFEDLIKGHIAINTDDFGDFVIVRSDGSPTYNFVVVVDDALMGITHVIRGEDHIPNTPKQILIYEALGFPVPKFAHLPVILGEDRSKLSKRHGAVSVRAYREEGYMPEALFNYLCLLGWSPPEEGREIFSKEELIKIFDLKDVNDSPAVFNKEKLKWMNGVYIREVLPLDVLLERAIPFLEKAGYDTSDREYIKKVLEYTRDSFDTLSEMVDRLRPFFVDEFEIPEELWSFLDDEKAYQVLSAFLEKIREKKPETPQEVKKLAKEIQKALKVKPPQVWKPLRIALTGELEGVGIDILIAVLPKEKIEKRILRVLEKLS | soluble
9 | MAHHHHHHMFFRTCCRLMVRPTALQRCKSVNSVTLVGVVHDIQSGFVYEDAVTQFTLTTTSIDTTHPTQEVVVEKDHHTIRCFGELFSAEVKQKVKEGNVVCVNGRLRLSPQLEPSCNKHFYFPYIQVQPPHGQVAVIHGDRRNTPASVNPTAEEIPAESESGTTSKTS | not soluble
10 | MGSDKIHHHHHHVWNDRVELSGKCEYALLALIELARGHSNGEPQQIKQLADRQNIPDRYLEQLLATLRRGGIVRSVRGARGGYLLAREPWQISMQDVVHCIDGTEMQRTEAIDQQSVTIERQILVDINVELCKAVEDVLAAYSLQDLLEIRENRASTDLMYYI | not soluble
11 | MGSDKIHHHHHHMSKPAYLVEADGVNITKQIADRLLSLTVVDEAEQLSDRVEIVLDDRDKLLEIPKSGTWLKVYLGYAEGGKLPVYMGTYAVDDLTLSNGPRSMVVRATALETAPAMKDSRTQSWHDTTLGEIARTIASRSGLELRIVGDVGSIPIKHEDQTAESDIAFLTRLARRLKITAKPIDKALWITRRASDIPATPGVELAQRIVKGDEVSDWRATIKNRGAYSRVKARYFDQDEKKEKLLTVGPEDGNLQTFEEKQLYKTRDEAQRAADSRLQSLQSGEVTIDFSMEGDPEFTAEGQVTLQDFRALVDGTWYIRNVTHKFDGNGYRTTVTCGTKGEANNDWSAGRGENDKRSASEKGSLLCKTAQQLRGFSTQGGPDGGRNACVWAVNRVFQKAGLTTPWGGSNYVPDAEAALRRSGAQQVSGPEPGAIAIFTDGGNPPQAHIGIVTCDGGRVISNSSSRPTRTRLASPSEYQGFYSGPIRYYRLK | not soluble
12 | MSLATISKITVQKKAKQRYNVFIGKPGAERFAFSVDEAILVKYGLRKGLELDENEIKALIEADELKKTHHLALHYLSYRMRTEKEIRDYLKEKDRLDEHIEKTIVSLKAEKLIDDRAFAEAFARSKTAQTLIGPNKIRQQLLQKGVNAEAMAKALSPYQIKWQIDVLTAWLDKQERRAVNRRESNEQLKQKRTHQLLAKGFEYEAIQAALANREANEDNEWEALVYQGEKLLKSYVKKYNGRELTYKLKQALYRKGFALSKIDRFLQTEMEGEEGHHHHHH | soluble
13 | MAHHHHHHMKVKKKIVKKINKNSNVKIYKSSKHVNEVNNNTLTNNNEVKQNNEYYESFFIPKNLTEFNFKDNDKQLYYLMSLLNEIHDIFYIMLEQFKRKETNDENRDDQIYNYFLRYPVVRTILTQYRKQVLKGFTFNISLLSDDIKRSDFMDNIVKFGGLINNQDYNHLLTVNTFIENENIKNVSTSNLMWLERALYTWK | not soluble
14 | MTMEALLTPNNNNVPTSPVQTTYTSTQRYCSAPNVDIGESKTNLIINYLPQGMTQEEVRSLFTSIGEIESCKLVRDKVTGQSLGYGFVNYVREEDALRAVSSFNGLRLQNKTIKVSYARPSNDQIKGSNLYVSGIPKSMTLHELESIFRPFGQIITSRILSDNVTGLSKGVGFVRFDKKDEADVAIKTLNGSIPSGCSEQITVKFANNPASNNPKGLLSDLEAVQQAATTLVPLSTILGAPTLRATAGGIGPMHHAPITSKYRYSPMGAITAVSQPTATLPADYLTTSALLQMSQLNALAGLNPFATATAVPDFTASLIAHQQQQHAVAQQHAAQTASPPATNGQVAGLAAHAQLSALSASVAATLPPSDTAGYCLFVYNLSSDTDDTLLWQLFSQFGAIVNVKILRDLTQQCKGYAFVSMSNYTEAYNAMLSLNGTNLAGKTLQVVFKSSTPYRA | not soluble
15 | MAEPARARPKITPETQHYWDGAKQGELRLQRCDSCAHAYFPPRPFCPKCGSREVSVFKASGKGTLYSYVINHRPLAAGFTEPYAIAVVELEEGPRMMSNILECPQTPEALELDMKLEVTFQKIDDNLTLPQFRPAKG | not soluble
